Assay results published in US20240350646A1, “METHODS AND COMPOSITIONS FOR DELIVERY TO AND ACROSS THE BLOOD BRAIN BARRIER” (NUtech Ventures, priority 2021, published 2024).

Experiments:
[1] = MST check of non-specific binding to detergent micelles; settings: NP fixed at 1 μM, β-DDM varied; data not shown
Experimental: Human claudin-1 was expressed and purified as reported previously (Vecchio & Stroud, 2019, PNAS USA, 116:17817-24). MST measurements were performed using a Monolith instrument (NanoTemper Technologies). For experiments with human claudin-1, the assay buffer contained 10 mM Tris HCl, pH 8.0, 100 mM NaCl, 4% glycerol, and 0.04% n-Dodecyl-β-D-Maltopyranoside (β-DDM). NPs and peptides were labeled with AF647 prior to MST analysis as described above. For the binding experiments, the concentration of human claudin-1 was varied from 2.2-73,500 nM and the AF647-labeled C1C2-NP was fixed at 70 nM, while the AF647 labeled NPs and AF647 labeled C1C2 peptide were fixed at 1 and 0.3 μM, respectively. Binding of the AF647 labeled C1C2-NP to human claudin-3, -4, and -9 were tested using 0.4-14000 nM, 0.8-28000 nM, and 0.6-20000 nM, respectively; with the AF647 labeled C1C2-NP fixed at 70 nM. This assay buffer was similar, except β-DDM was replaced with 0.1% n-Undecyl-β-D-Maltopyranoside (beta-UDM). […] All experiments were conducted at 23° C. using the nano-red channel of the Monolith instrument and the data were analyzed by using either Monolith analysis software or Graph Pad Prism, version 9 (Graph Pad Software, San Diego, California).

claudin-1 = molecular target: T1, claudin-1 (Mus musculus, UniProt O88551); settings: corpus callosum and hippocampus, in vivo
T1 sequence (O88551 1-211): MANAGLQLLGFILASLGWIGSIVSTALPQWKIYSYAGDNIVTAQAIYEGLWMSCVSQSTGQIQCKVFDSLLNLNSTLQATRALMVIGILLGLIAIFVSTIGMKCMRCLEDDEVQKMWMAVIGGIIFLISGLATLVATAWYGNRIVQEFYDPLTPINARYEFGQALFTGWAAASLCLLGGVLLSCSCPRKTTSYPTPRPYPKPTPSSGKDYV
Experimental: A fluorescence microscope (LSM800, Zeiss) was used to take the fluorescence image of mice brain. Mice were transcardially perfused after 2 h of MRI with 4% paraformaldehyde (PFA) in Dulbecco's phosphate-buffered saline (DPBS, Thermo Fisher Scientific, Waltham, MA). Brain tissue was collected, trimmed, and fixed in 4% buffered PFA for 24 h. The brains were moved into 30% sucrose in DPBS for 3 d at 4° C. for cryoprotection. The brains were then embedded in 2.6% carboxymethylcellulose (CMC, C4888, Sigma-Aldrich, St. Louis, MO), frozen on dry ice, and sliced coronally at a 15 μm thickness with cryotome (Leica Biosystems, Wetzlar, Germany). The brain slices were laid on poly-L-lysine coated microscope slides (Thermo Fisher Scientific) and dried overnight at RT. […]
Images were acquired with confocal microscopy at 40× objective lens magnification. Quantitative image analysis was performed with ImageJ software on at least two randomly selected viewing fields for each region for each mouse. The fluorescence signal of claudin-1 was thresholded to only integrate the density above 20 to remove the background fluorescence. Gamma correction was performed only on the representative images after the immunofluorescence quantification with shadows value of 0, midtones value of 0.26, and highlights value of 100 for all CMYK channels with Adobe Photoshop.

human claudin-4 = molecular target: T2, human claudin-4 (human, UniProt O14493 1-209, limits assumed); experiment: MST, sigmoidal dose-response fit (GraphPad Prism) of the FIG. 10A data; confidence interval undefined [panel B]
T2 sequence (looked up): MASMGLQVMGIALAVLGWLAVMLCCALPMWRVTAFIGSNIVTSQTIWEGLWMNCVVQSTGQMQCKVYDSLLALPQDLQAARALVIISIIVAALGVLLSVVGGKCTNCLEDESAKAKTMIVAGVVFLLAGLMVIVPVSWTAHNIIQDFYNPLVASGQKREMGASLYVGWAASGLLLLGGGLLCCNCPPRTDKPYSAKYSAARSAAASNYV
Experimental: (§1) FIG. 10A is a graph showing binding of human claudins 3, 4 and 9 to C1C2-NPs using microscale thermophoresis. […] FIG. 10C is a graph showing the binding of human claudins 4 and 9 to control NPs monitored using microscale thermophoresis. […] Data fitting for human claudins 3, 4 and 9 were performed using Graph Pad Prism.
(§2) Human claudin-1 was expressed and purified as reported previously (Vecchio & Stroud, 2019, PNAS USA, 116:17817-24). MST measurements were performed using a Monolith instrument (NanoTemper Technologies). For experiments with human claudin-1, the assay buffer contained 10 mM Tris HCl, pH 8.0, 100 mM NaCl, 4% glycerol, and 0.04% n-Dodecyl-β-D-Maltopyranoside (β-DDM). NPs and peptides were labeled with AF647 prior to MST analysis as described above. For the binding experiments, the concentration of human claudin-1 was varied from 2.2-73,500 nM and the AF647-labeled C1C2-NP was fixed at 70 nM, while the AF647 labeled NPs and AF647 labeled C1C2 peptide were fixed at 1 and 0.3 μM, respectively. Binding of the AF647 labeled C1C2-NP to human claudin-3, -4, and -9 were tested using 0.4-14000 nM, 0.8-28000 nM, and 0.6-20000 nM, respectively; with the AF647 labeled C1C2-NP fixed at 70 nM. This assay buffer was similar, except β-DDM was replaced with 0.1% n-Undecyl-β-D-Maltopyranoside (beta-UDM).

human claudin-3 [2] = molecular target: T3, human claudin-3 (human, UniProt O15551 1-220, limits assumed); experiment: MST, sigmoidal dose-response fit (GraphPad Prism) of the FIG. 10A data; fit without amplitude, confidence interval undefined [panel B]
T3 sequence (looked up): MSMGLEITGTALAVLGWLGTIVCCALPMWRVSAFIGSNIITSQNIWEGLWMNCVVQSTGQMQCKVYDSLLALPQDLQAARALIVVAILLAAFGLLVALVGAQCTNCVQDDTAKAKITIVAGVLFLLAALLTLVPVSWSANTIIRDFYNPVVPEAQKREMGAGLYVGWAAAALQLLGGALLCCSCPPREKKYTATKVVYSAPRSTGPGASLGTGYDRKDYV
Experimental: as §1, §2

human claudin-9 = molecular target: T4, human claudin-9 (human, UniProt O95484 1-217, limits assumed); experiment: MST, sigmoidal dose-response fit (GraphPad Prism) of the FIG. 10A data, M is the unit of the concentration axis of panel A; fit did not converge [panel B]
T4 sequence (looked up): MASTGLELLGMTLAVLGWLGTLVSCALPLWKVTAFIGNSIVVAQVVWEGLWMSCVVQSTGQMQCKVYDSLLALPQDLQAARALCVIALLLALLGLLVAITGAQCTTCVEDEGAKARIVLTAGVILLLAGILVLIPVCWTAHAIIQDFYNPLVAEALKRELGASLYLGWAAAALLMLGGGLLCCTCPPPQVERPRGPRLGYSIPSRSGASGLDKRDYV
Experimental: as §1, §2

human claudin-3 [3] = molecular target: T3, human claudin-3; experiment: MST, sigmoidal dose-response fit (GraphPad Prism) of the FIG. 10A data, M is the unit of the concentration axis of panel A; fit without amplitude, confidence interval undefined [panel B]
Experimental: as §1, §2

Question: Which “Non-specific binding to β-DDM micelle” value [1] does the source give for “C1C2-NP: PEG diacid coated ultrasmall Gd NP conjugated with C1C2 peptide SSVSQSTGQIQSKVDSLLNLNSTQATR (SEQ ID NO: 6); claudin-1 targeted (Ac-SSVSQSTGQIQSKVDSLLNLNSTQATR-NH2; also: conjugated to PEG diacid coated ultrasmall Gd nanoparticle)” here?
Answer: The value was “No significant binding”.

Question: And the “Localization relative to claudin-1 immunofluorescence staining” value (claudin-1)?
Answer: The value was “co-localize”.

B1: C1C2-NP (C1C2 peptide conjugated to PEG diacid coated ultrasmall Gd nanoparticles) (peptide)
peptide: Ac-SSVSQSTGQIQSKVDSLLNLNSTQATR-NH2
modifications: not fully specified; also: conjugated by EDC-NHS chemistry to PEG diacid on Gd oxide nanoparticle surface (19 peptides per 3.5 nm particle)
notes: The protein part is the C1C2 peptide; the core is not a protein; also called C1C2-NPs; C1C2 NPs
Question: Which results are given for B1?
Answer: LogEC50 (human claudin-4): -4.7; LogEC50 (human claudin-3 [2]): -7.05; EC50 (human claudin-9): 218 mM; EC50 (human claudin-3 [3]): 88.1 nM
